Experimental data as given in patent publication US20050282743A1, “Molecular interactions in cells” (Arbor Vita Corporation, priority 2001, published 2005).

Legend:
[1] = biological target: T1, GST-KIAA1634 PDZ domain 2 (Homo sapiens (Human)), Q5TCQ9; assay: G' assay; note: key of the grades not given here
T1 chain: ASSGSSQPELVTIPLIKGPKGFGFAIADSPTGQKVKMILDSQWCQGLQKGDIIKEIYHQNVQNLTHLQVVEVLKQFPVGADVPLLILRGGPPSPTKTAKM

[2] = biological target: T2, GST-PTPL1 PDZ domain 2 (Homo sapiens (Human)), Q12923; assay: G' assay; note: key of the grades not given here
T2 chain: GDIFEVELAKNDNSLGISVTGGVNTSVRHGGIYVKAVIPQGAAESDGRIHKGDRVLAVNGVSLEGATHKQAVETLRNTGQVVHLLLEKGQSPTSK

[3] = biological target: T1, GST-KIAA1634 PDZ domain 2 (Homo sapiens …); assay: G assay titration, PDZ 5 ug/ml
[4] = biological target: T2, GST-PTPL1 PDZ domain 2 (Homo sapiens …); assay: G assay titration, PDZ 5 ug/ml
[5] = biological target: GST-Atrophin-1 Interacting Protein PDZ domain 5 (Rattus norvegicus (Rat)), O88382; assay: G' assay; note: key of the grades not given here
[6] = biological target: GST-BAI-1 Associated Protein PDZ domain 3 (Homo sapiens (Human)), Q96QZ7; assay: G' assay; note: key of the grades not given here
[7] = biological target: GST-DLG1 PDZ domains 1, 2 (Homo sapiens), Q12959; assay: G' assay; note: key of the grades not given here
[8] = biological target: T3, GST-NeDLG PDZ domains 1, 2, Q92796; assay: G' assay; note: key of the grades not given here
T3 chain: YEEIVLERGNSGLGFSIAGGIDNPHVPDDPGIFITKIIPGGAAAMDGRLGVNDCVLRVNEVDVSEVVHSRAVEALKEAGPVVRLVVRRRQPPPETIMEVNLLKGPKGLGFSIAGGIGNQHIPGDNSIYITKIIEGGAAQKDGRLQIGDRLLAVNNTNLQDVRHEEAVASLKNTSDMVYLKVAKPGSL

[9] = biological target: GST-PSD95 PDZ domains 1, 2, 3 (Homo sapiens), P78352; assay: G' assay; note: key of the grades not given here
[10] = biological target: T4, GST-Syntrophin 1 alpha PDZ domain 1 (Homo sapiens (Human)), Q13424; assay: G' assay; note: key of the grades not given here
T4 chain: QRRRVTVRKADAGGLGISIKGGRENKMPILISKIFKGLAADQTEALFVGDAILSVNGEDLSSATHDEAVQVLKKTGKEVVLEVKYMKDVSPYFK

[11] = biological target: T5, GST-Syntrophin gamma 1 PDZ domain 1 (Homo sapiens (Human)), Q9NSN8; assay: G' assay; note: key of the grades not given here
T5 chain: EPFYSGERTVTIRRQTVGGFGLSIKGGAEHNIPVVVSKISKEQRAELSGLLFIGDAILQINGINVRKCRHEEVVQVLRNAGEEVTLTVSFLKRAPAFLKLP

[12] = biological target: T6, GST-TIP1 PDZ domain 1 (Table 9 insert) (Homo sapiens (Human)), O14907; assay: G' assay; note: key of the grades not given here
T6 chain: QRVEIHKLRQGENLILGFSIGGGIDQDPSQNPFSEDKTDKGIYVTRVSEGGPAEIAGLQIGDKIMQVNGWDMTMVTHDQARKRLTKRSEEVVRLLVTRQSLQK

[13] = biological target: T1, GST-KIAA1634 PDZ domain 2 (Homo sapiens …); assay: G assay titration, PDZ 1 ug/ml
[14] = biological target: T2, GST-PTPL1 PDZ domain 2 (Homo sapiens …); assay: G assay titration, PDZ 0.5 ug/ml
[15] = biological target: GST-PSD95 PDZ domains 1, 2, 3 (Homo sapiens), P78352; assay: G assay competition vs 10 uM biotin-CD95 20-mer; competitor 100 uM
[16] = biological target: GST-PSD95 PDZ domains 1, 2, 3 (Homo sapiens), P78352; assay: G assay competition vs 20 uM biotin-CD46 20-mer; competitor 100 uM
[17] = biological target: GST-PSD95 PDZ domains 1, 2, 3 (Homo sapiens), P78352; assay: G assay competition vs 10 uM biotin-KV1.3 20-mer; competitor 100 uM
[18] = biological target: GST-PSD95 PDZ domains 1, 2, 3 (Homo sapiens), P78352; assay: G assay competition vs 20 uM biotin-CLASP-2 20-mer; competitor 100 uM
[19] = biological target: T7, GST-AF6 PDZ domain 1 (Homo sapiens (Human)), P55196; assay: G' assay; note: key of the grades not given here
T7 chain: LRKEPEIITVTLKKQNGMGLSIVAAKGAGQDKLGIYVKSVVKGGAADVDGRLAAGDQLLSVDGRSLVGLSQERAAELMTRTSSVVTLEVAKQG

[20] = biological target: T8, GST-AIPC PDZ domain 1 (Homo sapiens (Human)), O15018; assay: G' assay; note: key of the grades not given here
T8 chain: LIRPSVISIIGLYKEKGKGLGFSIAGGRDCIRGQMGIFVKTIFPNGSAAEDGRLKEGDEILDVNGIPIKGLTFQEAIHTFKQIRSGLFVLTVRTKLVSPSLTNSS

[21] = biological target: T9, GST-AIPC PDZ domain 4 (Homo sapiens (Human)), O15018; assay: G' assay; note: key of the grades not given here
T9 chain: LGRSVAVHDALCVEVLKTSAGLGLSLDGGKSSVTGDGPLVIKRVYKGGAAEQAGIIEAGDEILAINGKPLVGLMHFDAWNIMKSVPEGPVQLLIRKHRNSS

[22] = biological target: T10, GST-DVL2 PDZ domain 1 (Homo sapiens (Human)), O14641; assay: G' assay; note: key of the grades not given here
T10 chain: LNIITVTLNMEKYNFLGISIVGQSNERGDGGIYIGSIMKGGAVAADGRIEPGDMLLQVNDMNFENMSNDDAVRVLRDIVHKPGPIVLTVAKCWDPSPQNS

[23] = biological target: T11, GST-FLJ 10324 PDZ domain 1 [GST: P08515]; assay: G' assay; note: key of the grades not given here
T11 chain: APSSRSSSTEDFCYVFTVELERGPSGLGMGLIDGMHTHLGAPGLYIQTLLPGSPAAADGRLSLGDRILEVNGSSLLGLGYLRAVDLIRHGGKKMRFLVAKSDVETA

[24] = biological target: T12, GST-HEMBA 1003117 PDZ domain 1 (Homo sapiens (Human)), Q96JH8; assay: G' assay; note: key of the grades not given here
T12 chain: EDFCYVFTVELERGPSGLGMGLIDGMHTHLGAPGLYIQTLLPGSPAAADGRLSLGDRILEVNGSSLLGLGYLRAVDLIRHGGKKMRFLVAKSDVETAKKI

[25] = biological target: T13, GST-INADL PDZ domain 3 (Homo sapiens (Human)), Q8NI35; assay: G' assay; note: key of the grades not given here
T13 chain: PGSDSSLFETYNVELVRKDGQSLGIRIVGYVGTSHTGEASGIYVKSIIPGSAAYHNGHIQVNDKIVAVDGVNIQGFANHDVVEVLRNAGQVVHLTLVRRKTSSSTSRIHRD

[26] = biological target: T14, GST-KIAA0561 PDZ domain 1 (Homo sapiens (Human)), O60307; assay: G' assay; note: key of the grades not given here
T14 chain: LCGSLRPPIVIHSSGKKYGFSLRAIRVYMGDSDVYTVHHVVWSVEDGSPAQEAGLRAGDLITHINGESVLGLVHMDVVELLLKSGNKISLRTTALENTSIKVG

[27] = biological target: T15, GST-KIAA0751(L) PDZ domain 1 (Mus musculus (Mouse)), Q9EQZ7; assay: G' assay; note: key of the grades not given here
T15 chain: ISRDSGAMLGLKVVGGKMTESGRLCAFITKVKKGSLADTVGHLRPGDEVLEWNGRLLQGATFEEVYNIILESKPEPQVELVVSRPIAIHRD

[28] = biological target: T16, GST-KIAA0807(S) PDZ domain 1 (Homo sapiens (Human)), Q6P0Q8; assay: G' assay; note: key of the grades not given here
T16 chain: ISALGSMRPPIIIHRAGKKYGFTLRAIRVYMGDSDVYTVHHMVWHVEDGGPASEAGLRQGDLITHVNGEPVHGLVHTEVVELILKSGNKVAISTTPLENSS

[29] = biological target: T17, GST-MINT1 PDZ domains 1, 2, Q02410; assay: G' assay; note: key of the grades not given here
T17 chain: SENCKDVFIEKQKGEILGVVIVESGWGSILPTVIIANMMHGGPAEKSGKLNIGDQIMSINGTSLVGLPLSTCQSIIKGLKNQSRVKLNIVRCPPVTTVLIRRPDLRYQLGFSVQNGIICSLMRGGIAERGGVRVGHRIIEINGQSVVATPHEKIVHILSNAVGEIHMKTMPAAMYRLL

[30] = biological target: T18, GST-MUPP1 PDZ domain 3 (Homo sapiens (Human)), O75970; assay: G' assay; note: key of the grades not given here
T18 chain: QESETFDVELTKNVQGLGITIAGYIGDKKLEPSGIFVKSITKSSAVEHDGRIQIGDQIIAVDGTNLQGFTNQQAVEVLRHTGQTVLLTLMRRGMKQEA

[31] = biological target: T19, GST-MUPP1 PDZ domain 7 (Homo sapiens (Human)), O75970; assay: G' assay; note: key of the grades not given here
T19 chain: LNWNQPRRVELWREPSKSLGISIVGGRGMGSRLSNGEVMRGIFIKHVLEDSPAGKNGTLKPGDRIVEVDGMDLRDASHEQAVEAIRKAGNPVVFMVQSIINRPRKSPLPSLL

[32] = biological target: T20, GST-MUPP1 PDZ domain 9 (Homo sapiens (Human)), O75970; assay: G' assay; note: key of the grades not given here
T20 chain: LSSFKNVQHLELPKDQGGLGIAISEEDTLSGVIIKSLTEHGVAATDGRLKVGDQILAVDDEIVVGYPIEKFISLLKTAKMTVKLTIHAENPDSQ

[33] = biological target: T21, GST-NOS1 PDZ domain 1 (Homo sapiens (Human)), P29475; assay: G' assay; note: key of the grades not given here
T21 chain: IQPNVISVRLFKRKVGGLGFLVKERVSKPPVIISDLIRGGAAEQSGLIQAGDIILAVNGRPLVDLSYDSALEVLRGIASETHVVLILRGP

[34] = biological target: GST-PAR3 PDZ domain 3 (Homo sapiens (Human)), Q8TEW0; assay: G' assay; note: key of the grades not given here
[35] = biological target: T22, GST-PTPL1 PDZ domain 4 (Homo sapiens (Human)), Q12923; assay: G' assay; note: key of the grades not given here
T22 chain: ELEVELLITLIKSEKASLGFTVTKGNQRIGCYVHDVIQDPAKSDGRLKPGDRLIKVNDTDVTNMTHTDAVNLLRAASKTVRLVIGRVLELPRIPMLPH

[36] = biological target: T23, GST-ZO-1 PDZ domain 1 (Rattus norvegicus (Rat)), A0A0G2; assay: G' assay; note: key of the grades not given here
T23 chain: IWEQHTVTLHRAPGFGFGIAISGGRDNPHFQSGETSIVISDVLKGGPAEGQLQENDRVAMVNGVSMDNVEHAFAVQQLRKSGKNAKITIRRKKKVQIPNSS

[37] = biological target: T11, GST-FLJ 10324 PDZ domain 1 [GST: P08515]; assay: G assay titration, PDZ 1 ug/ml
[38] = biological target: T17, GST-MINT1 PDZ domains 1, 2, Q02410; assay: G assay titration, PDZ 2 ug/ml
[39] = biological target: T22, GST-PTPL1 PDZ domain 4 (Homo sapiens …); assay: G assay titration, PDZ 3 ug/ml
[40] = biological target: T19, GST-MUPP1 PDZ domain 7 (Homo sapiens …); assay: G assay titration, PDZ 5 ug/ml
[41] = biological target: T12, GST-HEMBA 1003117 PDZ domain 1 (Homo …); assay: G assay titration, PDZ 0.5 ug/ml
[42] = biological target: GST-PAR3 PDZ domain 3 (Homo sapiens (Human)), Q8TEW0; assay: G assay titration, PDZ 0.5 ug/ml

GST-PSD95 PDZ domains 1, 2, 3 (Homo sapiens), P78352, sequence (P78352 62-395): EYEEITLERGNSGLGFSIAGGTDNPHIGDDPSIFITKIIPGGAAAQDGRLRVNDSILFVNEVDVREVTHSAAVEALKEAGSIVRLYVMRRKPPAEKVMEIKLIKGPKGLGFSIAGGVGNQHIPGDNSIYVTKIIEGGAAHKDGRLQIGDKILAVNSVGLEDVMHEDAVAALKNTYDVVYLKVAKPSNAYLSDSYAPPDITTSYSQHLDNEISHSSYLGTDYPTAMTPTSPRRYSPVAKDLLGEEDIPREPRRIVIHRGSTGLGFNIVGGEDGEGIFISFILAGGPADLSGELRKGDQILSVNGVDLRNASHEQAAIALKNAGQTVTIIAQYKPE
GST-Atrophin-1 Interacting Protein PDZ domain 5 (Rattus norvegicus (Rat)), O88382, sequence (O88382 1128-1225): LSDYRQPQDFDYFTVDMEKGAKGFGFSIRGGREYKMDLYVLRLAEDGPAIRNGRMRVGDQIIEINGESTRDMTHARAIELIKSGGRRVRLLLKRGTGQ
GST-PAR3 PDZ domain 3 (Homo sapiens (Human)), Q8TEW0, sequence (Q8TEW0 579-681): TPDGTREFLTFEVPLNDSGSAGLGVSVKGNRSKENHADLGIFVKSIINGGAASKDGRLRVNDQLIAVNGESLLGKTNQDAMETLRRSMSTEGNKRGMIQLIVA
GST-BAI-1 Associated Protein PDZ domain 3 (Homo sapiens (Human)), Q96QZ7, sequence (Q96QZ7 other isoform, or with tags, fused parts or gaps): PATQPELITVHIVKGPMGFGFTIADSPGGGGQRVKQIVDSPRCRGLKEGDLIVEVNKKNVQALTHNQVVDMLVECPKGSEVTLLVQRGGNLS

IVTVVTMVTNVDFPPKESSL (modifications not checked) [ActRIIA]
Classification [1]: 2 A450 class
Classification [2]: 3 A450 class
Kd [3]: 5 µM
Kd [4]: 5 µM

EDPKDRPSAAHIVEALETDV (modifications not checked) [PDZ-binding kinase (PBK)]
Classification [5]: 1 A450 class
Classification [6]: 1 A450 class
Classification [7]: 1 A450 class
Classification [1]: 3 A450 class
Classification [8]: 1 A450 class
Classification [9]: 1 A450 class
Classification [2]: 4 A450 class
Classification [10]: 1 A450 class
Classification [11]: 1 A450 class
Classification [12]: 1 A450 class
Kd [13]: 7 µM
Kd [14]: 6 µM

REVKFTSL (modifications not checked) [CD46 8-mer]
% binding of labelled 20-mer [15]: 65%
% binding of labelled 20-mer [16]: 95%
% binding of labelled 20-mer [17]: 71%
% binding of labelled 20-mer [18]: 81%

STDNLVRPFMDTLASHQLYI (modifications not checked) [presenilin-2]
Classification [19]: 3 A450 class
Classification [20]: 1 A450 class
Classification [21]: 1 A450 class
Classification [5]: 1 A450 class
Classification [22]: 1 A450 class
Classification [23]: 5 A450 class
Classification [24]: 4 A450 class
Classification [25]: 1 A450 class
Classification [26]: 1 A450 class
Classification [27]: 1 A450 class
Classification [28]: 1 A450 class
Classification [29]: 3 A450 class
Classification [30]: 3 A450 class
Classification [31]: 2 A450 class
Classification [32]: 3 A450 class
Classification [33]: 1 A450 class
Classification [34]: 5 A450 class
Classification [35]: 2 A450 class
Classification [36]: 1 A450 class
Kd [37]: 1 µM
Kd [38]: 6 µM
Kd [39]: 8 µM
Kd [40]: 4 µM
Kd [41]: 4 µM
Kd [42]: 2 µM
